This note sets out measurements from patent US20250215059A1.

In assay [1] the target is tau aggregates in HEK293 tau biosensor cells (4R repeat domain of tau (K18) with the P301S mutation fused to CFP or YFP, seeded with clarified tau mouse brain homogenate) (UniProt P10636). The assay is described as follows: Halo imaging, colocalization with cytoplasmic tau aggregates, 5 images.
For assay [2] the target is unchanged. Put plainly: Halo imaging, colocalization with cytoplasmic tau aggregates (FIG. 5D).
For assay [3] the target is unchanged. The assay is described as follows: Halo (JF646) imaging; intensity in aggregate over adjacent region, 5 aggregates.
For assay [4] the target is unchanged. The assay is described as follows: Halo (JF646) imaging; intensity in aggregate over adjacent region, five aggregates.
Assay [5] has the same target. The assay is described as follows: Halo (JF646) imaging in seeded HEK293 tau biosensor cells; mean Halo intensity in aggregates over that of the compartment.

Chain of tau aggregates in HEK293 tau biosensor cells (4R repeat domain of tau (K18) with the P301S mutation fused to CFP or YFP, seeded with clarified tau mouse brain homogenate) (P10636 561-689 P618S): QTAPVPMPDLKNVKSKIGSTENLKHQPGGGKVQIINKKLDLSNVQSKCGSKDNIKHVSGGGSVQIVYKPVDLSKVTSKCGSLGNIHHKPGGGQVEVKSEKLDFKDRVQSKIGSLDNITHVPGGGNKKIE

Take 42-polyserine-halo: the percentage of cytoplasmic tau aggregates positive for the construct in assay [1] came out at 96%. In assay [2], the percentage of cytoplasmic tau aggregates with recruitment is > 90%. In assay [3], this substance showed a mean enrichment in cytoplasmic tau aggregates of 5.46.

In turn, Frag_1-Halo (SRRM2 a.a. 2606-2752) had a mean enrichment in cytoplasmic tau aggregates in assay [4] of 2.5.

As for Frag_2-Halo (SRRM2 a.a. 2458-2752), the percentage of cytoplasmic tau aggregates positive for the construct in assay [1] was 98%. In assay [2], the percentage of cytoplasmic tau aggregates with recruitment is > 90%. The mean enrichment in cytoplasmic tau aggregates in assay [4] amounted to 4.3.

Regarding Halo tagged 20 serine repeat, the mean enrichment in cytoplasmic tau aggregates in assay [3] turned out to be 1.19.

As to “SRRM2_FL-Halo (from UniProt Q9UQ35 1-2748)”, in assay [1], the percentage of cytoplasmic tau aggregates positive for the construct came out at 62%. This substance also registered a mean enrichment in tau aggregates in assay [5] of 2.57.
